Key:
[1] = biological target: native MSP-3 antigen of Plasmodium falciparum clone 3D7 schizonts and merozoites (Plasmodium falciparum); assay: indirect immunofluorescence on 3D7 mature schizont infected RBCs; antibody at 3 µg/ml in ADCI
[2] = biological target: native MSP-3 antigen of Plasmodium falciparum clone 3D7 schizonts and merozoites (Plasmodium falciparum); assay: cell-based or functional assay
[3] = biological target: native MSP-3 antigen of Plasmodium falciparum clone 3D7 schizonts and merozoites (Plasmodium falciparum); assay: indirect immunofluorescence on 3D7 mature schizont infected RBCs; antibody at 15 µg/ml in ADCI

- IFAT in ADCI (endpoint titre of indirect immunofluorescence) [1]: 10 titre
- SGI % (specific growth inhibitory index, ADCI with monocytes, 3 µg/ml) [2]: 23%
- SGI % (specific growth inhibitory index, ADCI with monocytes, 15 µg/ml) [2]: 49%
- IFAT in ADCI (endpoint titre of indirect immunofluorescence) [3]: 50 titre
B1: RAM1 IgG3 (antibody, V domains shown)
VH: QVQLVQSGGGVVQPGRSLRLSCAASGFTFSSYAMHWVRQAPGKGLEWVAVISYDGSNKYYADSVKGRFTISRDNSKNTLYLQMSSLRAEDTAVYYCVKGASSWSTGTLVTVSS
VL: DIVMMQSPATLSASVGDRVTITCRASQSISSWLAWYQQKPGKAPNLLIYKASSLESGVPSRFSGSGSGTEFTLTISSLQPDDFATYYCQQYKSFPYTFGQGTRLEIKR

— patent US7811569
